Test results reported in patent US20250171542A1 (ADEPT THERAPEUTICS, published 2025).

T1: PD-L2 (Sino Biological, Cat #10292-H08H) (UniProt Q9BQ51 20-219)
T1 sequence (looked up): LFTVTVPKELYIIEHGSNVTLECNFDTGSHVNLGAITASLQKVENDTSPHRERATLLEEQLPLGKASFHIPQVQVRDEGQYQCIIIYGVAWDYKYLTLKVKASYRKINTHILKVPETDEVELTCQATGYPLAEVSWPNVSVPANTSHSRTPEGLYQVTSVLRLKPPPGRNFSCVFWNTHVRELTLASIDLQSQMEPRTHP

T2: BH-H2 (Sino Biological, Cat #11559-H08H) (UniProt O75144 19-258)
T2 sequence (looked up): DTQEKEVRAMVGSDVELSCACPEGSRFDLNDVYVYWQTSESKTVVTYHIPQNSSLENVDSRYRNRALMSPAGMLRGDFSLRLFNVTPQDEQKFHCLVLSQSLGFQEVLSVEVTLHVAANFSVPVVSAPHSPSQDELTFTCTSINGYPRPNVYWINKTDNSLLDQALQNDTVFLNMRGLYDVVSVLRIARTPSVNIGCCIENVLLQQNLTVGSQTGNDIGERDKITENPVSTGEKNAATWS

T3: canine PD-L1 (Acro Biosystems, Cat #PDL-C52H4) (canine, UniProt E2RKZ5 19-236)
T3 construct: not shown: The vendor's tag, probably a polyhistidine tag
T3 sequence: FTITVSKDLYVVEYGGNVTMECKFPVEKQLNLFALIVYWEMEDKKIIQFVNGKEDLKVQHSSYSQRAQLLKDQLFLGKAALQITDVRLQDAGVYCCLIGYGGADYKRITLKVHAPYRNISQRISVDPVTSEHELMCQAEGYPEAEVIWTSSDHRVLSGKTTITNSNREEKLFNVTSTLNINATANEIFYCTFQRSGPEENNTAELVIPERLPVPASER

B1: 56E5 (antibody, human IgG1, V domains shown)
VH: QEQLEESGGGLVQPEGSLTLTCTASGFSFSGDYYMSWVRQAPGKGLEWIASIYTGSLNTYYATWAKGRFTISLTSSTTVTLQMTSLTAADTATYFCARRHKNADYGHFDLWGPGTLVTVSS
VL: YDMTQTPGSVEVAVGGTVTIKCQASQSINDRLAWYQQTPGQPPKLLIYGASTLASGVPSRFKGSGSGTEFTLTISDLECADAATYYCQQGWTVSSLDNAFGGGTEVVAK
B2: 57B10 (antibody, human IgG1, V domains shown)
VH: QEQLEESGGGLVQPEGSLTLTCTASGFSFSDDYYMSWVRQAPGKGLEWIASIYTGSLNTYYATWAKGRFTISLTSSTTVTLQMTSLTAADTATYFCARRNKNADWGHFDLWGPGTLVTVSS
VL: YDMTQTPASVEVAVGGTVTIKCQASQSISTALAWYQQKPGQPPKLLIYAASTLASGVPSRFRGSGSGTDFTLTISDLECADAATYYCQQGWTVSSLDNAFGGGTEVVAM
B3: 62E6 (antibody, human IgG1, V domains shown)
VH: QEQLEESGGDLVKPEGSLTLTCTASGFSFSGDYYMSWVRQAPGKGLEWIASIYTGSLNIYYATWAKGRFTISLTSSTTVTLQMTSLTAADTATYFCARRNKNADYGHFDLWGPGTLVTVSS
VL: YDMTQTPASVEVAVGGTVTIKCQASQSINDRLAWYQQKPRQPPKLLIYGASTLASGVPSRFKGSGSGTEFTLTISDLECVDAATYYCQQGWTVSSLDNAFGGGTEVVAK
B4: 57F11 (antibody, human IgG1, V domains shown)
VH: QEHLEESGGGLVQPEGALTLTCTASGFSFSGDYYMSWVRQAPGKGLEWIASIYTGSLNTYYATWAKGRFTISIASSTTVTLQVTSLTAADTATYFCARRTKNGDYGYFDLWGPGTLVTVSS
VL: YDMTQTPASVEVAVGGTVTIKCQASQSINDRLAWYQQKPGQPPKLLIYAASTLASGVPSRFKGSGSGTEFTLTISDLECADAATYYCQQGWTVSSLENAFGGGTEVVAK

Experiments:
[1] = molecular target: T4, human PD-L1 expressed on cell surface (human, UniProt Q9NZQ7 19-290); test: flow cytometry, MDA-MB-231-GFP cells
T4 construct: also called cell surface PD-L1
T4 sequence (Q9NZQ7 19-290 limits assumed): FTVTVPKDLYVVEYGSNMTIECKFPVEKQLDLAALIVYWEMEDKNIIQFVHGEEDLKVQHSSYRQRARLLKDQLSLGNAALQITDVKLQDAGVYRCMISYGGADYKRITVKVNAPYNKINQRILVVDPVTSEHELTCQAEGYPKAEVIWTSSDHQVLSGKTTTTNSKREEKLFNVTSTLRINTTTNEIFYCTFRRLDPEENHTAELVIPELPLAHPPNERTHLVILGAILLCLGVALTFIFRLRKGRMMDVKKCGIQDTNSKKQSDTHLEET
Method: Cells were then resuspended in FACS buffer (1×DPBS/1% FBS) at 10⁶/ml concentration. One hundred microliter (100 μl) of cells were aliquoted into a single well in 96 well plates. The antibodies to be tested were serially diluted at 1:3 fold starting at 15 ug/mL and were then added into each well. The antibodies were mixed with cells and the mixtures were incubated on ice for 1 hour. […] After washing with FACS buffer, stained cells were resuspended at diluted […] (Biolegend, Cat #420404, used at 1:100 dilution) and analyzed on Guava 11HT (Luminex). Data was analyzed using Flowjo software.
(§1) Anti-HEL isotype control (Biolntron) was used as negative control.

[2] = molecular target: T5, human PD-L1-His (Sino Biological, Cat #10084-H08H) (human, UniProt Q9NZQ7 19-238); test: ELISA, coated human PD-L1-His
T5 construct: Bought protein; also called human PD-L1 ECD-His; recombinant human PD-L1-His protein; not shown: His tag
T5 sequence (Q9NZQ7 19-238): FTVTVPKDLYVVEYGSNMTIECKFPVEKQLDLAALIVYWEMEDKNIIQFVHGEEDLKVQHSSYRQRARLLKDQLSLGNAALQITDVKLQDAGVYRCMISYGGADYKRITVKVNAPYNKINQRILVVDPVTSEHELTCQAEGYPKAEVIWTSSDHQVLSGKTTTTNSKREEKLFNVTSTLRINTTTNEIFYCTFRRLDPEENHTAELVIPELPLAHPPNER
Method: (§2) Briefly, Maxisorp plates (Nunc) were coated with 100 ul/well of 0.5 μg/ml human PD-L1-His (Sino Biological, Cat #10084-H08H) or cynomolgus PD-L1-His (Sino Biological, Cat. 90251-C08H) protein diluted in 1×PBS (GIBCO) overnight at 4° C. Plates were washed three times with 300 μl/well washing buffer (1×PBST, diluted from 20×PBST (Thermo Scientific) with distilled water)) and then blocked with 300 μl/well of blocking buffer (1×PBST/I % BSA) for 2 hours at RT on shaker (100 rpm). Plates were washed and added with 100 μl/well of testing antibodies, which were serial diluted with assay buffer (PBST/1% BSA). The antibodies were incubated at room temperature for 2 hours on plate shaker at 100 rpm. Plates were washed. One hundred microliter of horseradish peroxidase (HRP) conjugated detection antibody was added into each well and incubated at room temperature for 1 hour on plate shaker at 100 rpm. Plates were washed and added with 100 μl/well TMB substrate for color development at room temperature in dark for up to 10 minutes. After addition of 50 μl/well of stop solution (1N H₂SO₄), plates were read at 450 nm on a plate reader (SpectraMax M5).
as §1

[3] = molecular target: T6, cynomolgus PD-L1-His (Sino Biological, Cat. 90251-C08H) (cynomolgus, UniProt Q9NZQ7 19-238 (human entry)); test: ELISA, coated cyno PD-L1-His
T6 construct: Bought protein; also called Cyno PD-L1; Cynomolgus PD-L1 ECD-His; not shown: His tag
T6 sequence (Q9NZQ7 other isoform, or with tags, fused parts or gaps C08H C08H limits assumed): as the sequence (Q9NZQ7 19-238) above, with A33T, A34S, S62N, R68Q, Q82R, F173L, T185A, T192I, H215L counted along it
Method: as §2, §1

[4] = molecular target: T5, human PD-L1-His (Sino Biological, Cat …); test: BLI (Gator), antibody on HFC probe, human PD-L1-His in solution
Method: The affinity of the binding of the exemplary anti-PD-L1 antibodies of the present disclosure was determined. Assay was performed according to the protocol recommended by Gator or Gator Plus (Gator Bio Inc.). Briefly, human PD-L1-His (Sino Biological, Cat #10084-H08H) was serially diluted 4-fold, starting at 4 μg/ml. After three times of regeneration in generation buffer (Gator Bio, Cat #120012) and neutralization of HFC probe (Gator Bio, Cat #160003), 1 μg/ml of antibody to be tested in Q buffer (Gator Bio, Cat #120010) was immobilized onto HFC probe. After a baseline step, probe immobilized with antibody was dipped into antigen solutions. The association and dissociation of antigen from antibody was measured on BLI machine Gator. Affinity was calculated using Gator Bio analysis software.
Table 22 below summarizes the binding affinity to human PD-L1 using Gator.

[5] = molecular target: T4, human PD-L1 expressed on cell surface; test: cell-based or functional assay
[6] = molecular target: T6, cynomolgus PD-L1-His (Sino Biological, …); test: BLI (Gator), cynomolgus PD-L1
[7] = molecular target: T1, PD-L2 (Sino Biological, Cat #10292-H08H); test: ELISA
[8] = molecular target: T7, rat PD-L1 (Sino Biological, Cat #80450-R08H) (rat, UniProt D4AE25 19-239); test: ELISA
T7 construct: not shown: The vendor's polyhistidine tag
T7 sequence (D4AE25 entry or part of it R08H R08H limits assumed): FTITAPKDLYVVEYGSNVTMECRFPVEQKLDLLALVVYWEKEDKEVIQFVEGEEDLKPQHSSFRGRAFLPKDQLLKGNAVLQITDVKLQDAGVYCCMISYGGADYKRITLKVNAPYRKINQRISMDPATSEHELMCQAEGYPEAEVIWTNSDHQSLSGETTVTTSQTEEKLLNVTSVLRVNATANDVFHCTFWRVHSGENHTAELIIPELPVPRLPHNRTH

[9] = molecular target: T2, BH-H2 (Sino Biological, Cat #11559-H08H); test: ELISA
[10] = molecular target: T3, canine PD-L1 (Acro Biosystems, Cat …); test: ELISA

Row | Binder | EC50 [1] [nM] | EC50 [2] [nM] | EC50 [3] [nM] | Kd [4] [nM] | koff [4] [s⁻¹] | kon [4] [M⁻¹ s⁻¹] | Internalization (%), FACS, 0.25 µg/ml, 2 h [5] [%] | Internalization (%), FACS, 0.25 µg/ml, 4 h [5] [%] | Internalization (%), FACS, 0.5 µg/ml, 2 h [5] [%] | Internalization (%), FACS, 0.5 µg/ml, 4 h [5] [%] | Internalization (%), FACS, 1 µg/ml, 2 h [5] [%] | Internalization (%), FACS, 1 µg/ml, 4 h [5] [%] | Internalization (%), FACS, 2 µg/ml, 2 h [5] [%] | Internalization (%), FACS, 2 µg/ml, 4 h [5] [%] | Kd [6] [nM] | kon [6] [M⁻¹ s⁻¹] | binding result [7] | binding result [8] | binding result [9] | binding result [10] | also measured
1 | B1 | 1.29 | 0.0184 | 0.0078 | 0.75 | 0.00056 | 748000 | 22.9 | 22.1 | 20.7 | 19.8 | 23.8 | 20.6 | 24.7 | 26.5 | ≤ 0.03 | 313000 | no binding | no binding | no binding | no binding | koff [6]: ≤ 1e-05 s⁻¹
2 | B2 | 4.82 | 0.0186 | 0.0071 | 0.09 | 7.7e-05 | 810000 | 19.3 | 16.5 | 11.1 | 21.7 | 12.7 | 15.6 | 19.2 | 22.1 | 0.03 | 284000 | no binding | no binding | no binding | no binding | koff [6]: 7e-06 s⁻¹
3 | B3 | 2.03 | 0.024 | 0.0188 | 0.43 | 0.000342 | 788000 | 22.3 | 21 | 12.2 | 24 | 16.4 | 17.7 | 16.1 | 17.9 | – | 313000 | no binding | no binding | no binding | no binding | –
4 | B4 | 1.24 | 0.0216 | 0.0138 | 0.31 | 0.000113 | 371000 | 17.9 | 21.3 | 19.7 | 14.7 | 16.7 | 16.8 | 14.5 | 15.4 | 0.27 | 373000 | no binding | no binding | no binding | no binding | koff [6]: 0.000101 s⁻¹
